Article PMC13134850

Biological target: RadD adhesin of Fusobacterium nucleatum subsp. nucleatum ATCC 23726 (Fusobacterium nucleatum subsp. nucleatum ATCC 23726 (endogenous on the bacteria))
Assay: flow cytometry on cells

Molecule | fold increase in binding to ATCC 23726 ∆fad-I [fold]
NKp46 fusion protein (NKp46 Ig) (human) (from UniProt O76036 22-258) (Fc fusion) | 100
Ncr-1 fusion protein (Ncr-1 Ig) (mouse) (Fc fusion) QRINTEKETLPKPIIWAKPSIMVTNGNSVNIWCQGAQSASEYQLYFEGSFFALERPKPSRSMNKVRFFISQMTSHTAGIYTCFYQSGELWSKSSNPLKLVVTGLYDTPNLWVYPRPEVTLGENVTFFCQLKTATSKFFLLKERGSNHIQNKYGNIQAEFPMGPVTRAHRGTYRCFGSYNDYAWSFPSEPVTLLITGGVENSSLAPTDPTSSLDYWEFDLSTNESGLQKDSAFWDHTTQN | 100
